Results taken from doi:10.1101/2019.12.13.875658 (bioRxiv, 2019).

What was measured:
cryo-EM structure = target: the molecule itself; test: cryo-EM structure
β subunit of RNAP = β subunit of RNAP (E. coli, UniProt P0A8V2 1-1342); test: cryo-EM structure
β subunit of RNAP, sequence (P0A8V2 whole entry): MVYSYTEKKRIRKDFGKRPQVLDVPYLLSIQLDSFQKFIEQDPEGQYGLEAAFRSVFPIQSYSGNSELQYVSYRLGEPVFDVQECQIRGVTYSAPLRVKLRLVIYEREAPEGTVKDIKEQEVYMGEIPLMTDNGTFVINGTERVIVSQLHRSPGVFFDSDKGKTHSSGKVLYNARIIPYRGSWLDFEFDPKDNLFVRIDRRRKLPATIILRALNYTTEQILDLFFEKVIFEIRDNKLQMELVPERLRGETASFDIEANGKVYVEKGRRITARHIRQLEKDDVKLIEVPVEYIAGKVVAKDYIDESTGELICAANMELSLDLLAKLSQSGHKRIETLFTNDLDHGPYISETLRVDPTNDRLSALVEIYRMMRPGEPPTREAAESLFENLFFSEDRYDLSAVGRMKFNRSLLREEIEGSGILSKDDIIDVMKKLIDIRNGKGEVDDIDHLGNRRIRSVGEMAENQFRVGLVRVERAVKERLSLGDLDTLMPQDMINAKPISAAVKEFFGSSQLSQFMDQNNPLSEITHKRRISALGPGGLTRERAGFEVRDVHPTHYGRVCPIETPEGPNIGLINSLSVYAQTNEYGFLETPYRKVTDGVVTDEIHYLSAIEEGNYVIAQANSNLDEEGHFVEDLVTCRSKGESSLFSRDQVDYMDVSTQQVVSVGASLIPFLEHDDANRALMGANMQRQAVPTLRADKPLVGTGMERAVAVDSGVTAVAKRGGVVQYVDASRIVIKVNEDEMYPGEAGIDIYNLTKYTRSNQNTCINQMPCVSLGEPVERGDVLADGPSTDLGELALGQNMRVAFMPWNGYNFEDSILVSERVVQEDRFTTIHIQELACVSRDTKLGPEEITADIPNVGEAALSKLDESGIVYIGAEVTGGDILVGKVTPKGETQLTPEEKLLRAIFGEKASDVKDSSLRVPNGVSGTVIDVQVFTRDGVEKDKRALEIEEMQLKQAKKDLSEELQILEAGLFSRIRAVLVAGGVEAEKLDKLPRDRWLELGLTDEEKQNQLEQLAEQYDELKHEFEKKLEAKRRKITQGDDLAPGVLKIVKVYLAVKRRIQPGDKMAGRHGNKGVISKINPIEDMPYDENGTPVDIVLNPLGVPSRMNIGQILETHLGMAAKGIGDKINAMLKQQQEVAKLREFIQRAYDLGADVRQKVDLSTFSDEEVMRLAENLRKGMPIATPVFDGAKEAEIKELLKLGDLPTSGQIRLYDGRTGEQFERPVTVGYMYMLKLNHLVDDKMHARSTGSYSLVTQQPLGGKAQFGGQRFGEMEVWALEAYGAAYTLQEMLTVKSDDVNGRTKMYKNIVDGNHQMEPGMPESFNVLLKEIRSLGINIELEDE

B1: Cyclic AMP receptor protein (CAP) (natural protein)
chain: MVLGKPQTDPTLEWFLSHCHIHKYPSKSTLIHQGEKAETLYYIVKGSVAVLIKDEEGKEMILSYLNQGDFIGELGLFEEGQERSAWVRAKTACEVAEISYKKFRQLIQVNPDILMRLSAQMARRLQVTSEKVGNLAFLDVTGRIAQTLLNLAKQPDAMTHPDGMQIKITRQEIGQIVGCSRETVGRILKMLEDQNLISAHGKTIVVYGTR
In the case of B1, the “stoichiometry N” value (cryo-EM structure) is reported as 2 and the binding result (β subunit of RNAP) is reported as “binds”.
